Results reported in PMC13623948, “Steric Gating Contributes to the Preferential Ubiquitin Charging of BIRC6 by UBA6 versus UBA1” (Nature Communications, 2026).

Target: T1, human UBA6 (full-length, amino acid residues 1-1052) (human, UniProt A0AVT1 1-1052)
T1 construct: UBA6, human, Uniprot entry A0AVT1, full-length, residues 1-1052; The cloning methods name only the N-terminal 3×FLAG tag; the BLI methods say that His-tagged ligands were captured on anti-Penta-His sensors; also called UBA6^WT
T1 sequence (looked up): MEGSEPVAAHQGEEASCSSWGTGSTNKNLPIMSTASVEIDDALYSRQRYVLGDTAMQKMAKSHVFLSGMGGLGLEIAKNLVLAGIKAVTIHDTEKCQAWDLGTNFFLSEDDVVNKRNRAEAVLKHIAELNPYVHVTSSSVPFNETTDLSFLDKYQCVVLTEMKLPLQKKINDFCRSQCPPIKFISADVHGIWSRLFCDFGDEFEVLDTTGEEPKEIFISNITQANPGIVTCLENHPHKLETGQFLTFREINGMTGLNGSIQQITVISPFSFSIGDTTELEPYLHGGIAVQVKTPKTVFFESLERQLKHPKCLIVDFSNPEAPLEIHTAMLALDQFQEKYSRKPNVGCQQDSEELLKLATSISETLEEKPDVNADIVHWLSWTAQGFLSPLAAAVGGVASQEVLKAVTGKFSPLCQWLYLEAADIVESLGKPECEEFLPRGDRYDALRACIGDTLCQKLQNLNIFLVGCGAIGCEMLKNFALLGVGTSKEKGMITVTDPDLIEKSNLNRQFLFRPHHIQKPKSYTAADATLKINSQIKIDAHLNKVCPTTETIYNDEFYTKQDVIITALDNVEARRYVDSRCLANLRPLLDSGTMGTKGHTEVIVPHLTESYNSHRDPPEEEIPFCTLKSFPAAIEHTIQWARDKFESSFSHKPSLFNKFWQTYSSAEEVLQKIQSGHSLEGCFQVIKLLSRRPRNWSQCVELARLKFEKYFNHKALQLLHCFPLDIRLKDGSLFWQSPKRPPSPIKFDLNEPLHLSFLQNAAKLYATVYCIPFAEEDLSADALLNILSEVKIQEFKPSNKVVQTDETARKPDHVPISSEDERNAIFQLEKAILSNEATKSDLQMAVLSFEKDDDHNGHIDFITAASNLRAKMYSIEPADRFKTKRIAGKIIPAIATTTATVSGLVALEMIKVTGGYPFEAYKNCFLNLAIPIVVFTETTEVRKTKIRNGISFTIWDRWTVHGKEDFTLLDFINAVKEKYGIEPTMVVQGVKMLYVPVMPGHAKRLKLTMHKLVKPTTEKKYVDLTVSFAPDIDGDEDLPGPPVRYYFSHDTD
Assay: BLI; His-tagged E1 ligands on Anti-Penta-His (His1K) biosensors; analyte BIRC6^UBC or BIRC6^(UBCΔinsertion loop) at 40-3240 nM; 50 mM HEPES, pH 7.4, 150 mM NaCl, 0.05% Tween-20, 10 mM imidazole; 25 °C; steady-state 1:1 fit
Conditions: both partners purified

B1: UBC domain of BIRC6 (residues 4520-4857) (domain or fragment)
chain: not shown
notes: BIRC6 UBC domain, human, Uniprot entry Q9NR09, residues 4520-4857; also called BIRC6^UBC; WT BIRC6^UBC; source: E. coli BL21 (DE3), purified (Ni-NTA, HRV 3C cleavage, SEC); not shown: His6, N-terminal, cleaved
B1 was tested, and the Kd was 4.82 µM.
